B1: SLC35F2 (parent)
chain: FVAFALCMFCLYSFMPLVIKVTSA
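Also: lentivirally expressed fusions sorted by FACS into six bins by GFP to DsRed ratio, PSI derived from sequencing read proportions per bin multiplied by bin number.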

Variants of B1 are the subject of the data set. Put plainly: protein stability index of a GFP-peptide fusion (GPS, HEK-293T) (PSI 1-6); higher = more stable. Conditions: c terminus: a fixed tail appended.
For the variant FVAFALCMFCFYSFMPLVIKVTSA [L11F], the protein stability index stood at 2.21.

As for FVAFALCMFCNYSFMPLVIKVTSA [L11N], the protein stability index came to 3.45.

As for FVAFALCMFCVYSFMPLVIKVTSA [L11V], the protein stability index was determined as 3.

With FVAFALCMFCQYSFMPLVIKVTSA [L11Q], the protein stability index came out at 3.66.

Regarding FVAFALCMFCAYSFMPLVIKVTSA [L11A], the protein stability index turned out to be 3.07.

As to FVAFALCMFCWYSFMPLVIKVTSA [L11W], the protein stability index amounted to 2.44.

As to FVAFALCMFCSYSFMPLVIKVTSA [L11S], the protein stability index is 4.04.

Regarding FVAFALCMFCHYSFMPLVIKVTSA [L11H], the protein stability index was 2.99.

For FVAFALCMFCPYSFMPLVIKVTSA [L11P], the protein stability index worked out at 1.84.

As to FVAFALCMFCDYSFMPLVIKVTSA [L11D], the protein stability index is 3.52.

For the variant FVAFALCMFCRYSFMPLVIKVTSA [L11R], the protein stability index came to 2.85.

Consider FVAFALCMFCIYSFMPLVIKVTSA [L11I], for which the protein stability index is 3.19.

As to FVAFALCMFCGYSFMPLVIKVTSA [L11G], the protein stability index was 2.39.

Turning to FVAFALCMFCKYSFMPLVIKVTSA [L11K], the protein stability index stood at 3.17.

On to FVAFALCMFCEYSFMPLVIKVTSA [L11E], for which the protein stability index was determined as 4.11.

For the variant FVAFALCMFCYYSFMPLVIKVTSA [L11Y], the protein stability index is 2.67.

FVAFALCMFCCYSFMPLVIKVTSA [L11C]: the protein stability index was 3.54.

As to FVAFALCMFCTYSFMPLVIKVTSA [L11T], the protein stability index was found to be 2.43.

Regarding FVAFALCMFPLYSFMPLVIKVTSA [C10P], the protein stability index was found to be 2.35.

Take FVAFALCMFRLYSFMPLVIKVTSA [C10R]: the protein stability index worked out at 3.21.

For the variant FVAFALCMFNLYSFMPLVIKVTSA [C10N], the protein stability index worked out at 2.8.

Take FVAFALCMFLLYSFMPLVIKVTSA [C10L]: the protein stability index was 2.43.

For the variant FVAFALCMFYLYSFMPLVIKVTSA [C10Y], the protein stability index was found to be 2.28.

As for FVAFALCMFWLYSFMPLVIKVTSA [C10W], the protein stability index amounted to 2.35.

Turning to FVAFALCMFALYSFMPLVIKVTSA [C10A], the protein stability index was found to be 2.18.

Turning to FVAFALCMFILYSFMPLVIKVTSA [C10I], the protein stability index worked out at 2.27.

In the case of FVAFALCMFKLYSFMPLVIKVTSA [C10K], the protein stability index was 2.52.

Consider FVAFALCMFTLYSFMPLVIKVTSA [C10T], for which the protein stability index is 2.52.

On to FVAFALCMFMLYSFMPLVIKVTSA [C10M], for which the protein stability index amounted to 2.88.

Take FVAFALCMFGLYSFMPLVIKVTSA [C10G]: the protein stability index worked out at 2.58.

In the case of FVAFALCMFQLYSFMPLVIKVTSA [C10Q], the protein stability index is 3.47.

As for FVAFALCMFDLYSFMPLVIKVTSA [C10D], the protein stability index stood at 3.05.

Consider FVAFALCMFFLYSFMPLVIKVTSA [C10F], for which the protein stability index came out at 3.07.

Turning to FVAFALCMFHLYSFMPLVIKVTSA [C10H], the protein stability index came to 2.75.

With FVAFALCMFVLYSFMPLVIKVTSA [C10V], the protein stability index is 3.48.

Turning to FVAFALCMFELYSFMPLVIKVTSA [C10E], the protein stability index came to 3.49.

As to FVAFALCMFSLYSFMPLVIKVTSA [C10S], the protein stability index was determined as 3.53.

With FVAFALCRFCLYSFMPLVIKVTSA [M8R], the protein stability index turned out to be 3.49.

Turning to FVAFALCNFCLYSFMPLVIKVTSA [M8N], the protein stability index came out at 3.69.

As to FVAFALCVFCLYSFMPLVIKVTSA [M8V], the protein stability index was 3.38.

Consider FVAFALCQFCLYSFMPLVIKVTSA [M8Q], for which the protein stability index worked out at 2.57.

FVAFALCSFCLYSFMPLVIKVTSA [M8S]: the protein stability index turned out to be 3.3.

As for FVAFALCPFCLYSFMPLVIKVTSA [M8P], the protein stability index came out at 2.4.

Take FVAFALCYFCLYSFMPLVIKVTSA [M8Y]: the protein stability index came out at 3.31.

Regarding FVAFALCWFCLYSFMPLVIKVTSA [M8W], the protein stability index amounted to 3.65.

With FVAFALCTFCLYSFMPLVIKVTSA [M8T], the protein stability index is 2.72.

Consider FVAFALCMYCLYSFMPLVIKVTSA [F9Y], for which the protein stability index came out at 2.79.

As to FVAFALCMQCLYSFMPLVIKVTSA [F9Q], the protein stability index is 2.59.

On to FVAFALCMGCLYSFMPLVIKVTSA [F9G], for which the protein stability index is 1.76.

Consider FVAFALCMACLYSFMPLVIKVTSA [F9A], for which the protein stability index stood at 2.62.

As to FVAFALCMVCLYSFMPLVIKVTSA [F9V], the protein stability index is 2.56.

On to FVAFALCMSCLYSFMPLVIKVTSA [F9S], for which the protein stability index is 2.61.

Consider FVAFALCMLCLYSFMPLVIKVTSA [F9L], for which the protein stability index worked out at 2.07.

Regarding FVAFALCMWCLYSFMPLVIKVTSA [F9W], the protein stability index worked out at 2.68.

Regarding FVAFALCMCCLYSFMPLVIKVTSA [F9C], the protein stability index was found to be 2.94.

With FVAFALCMMCLYSFMPLVIKVTSA [F9M], the protein stability index was found to be 3.23.

Consider FVAFALCMRCLYSFMPLVIKVTSA [F9R], for which the protein stability index came out at 3.23.

On to FVAFALCMDCLYSFMPLVIKVTSA [F9D], for which the protein stability index was 3.1.

Consider FVAFALCMECLYSFMPLVIKVTSA [F9E], for which the protein stability index stood at 3.49.

FVAFALCMNCLYSFMPLVIKVTSA [F9N]: the protein stability index came to 2.31.

As for FVAFALCMKCLYSFMPLVIKVTSA [F9K], the protein stability index is 3.39.

For the variant FVAFALCMPCLYSFMPLVIKVTSA [F9P], the protein stability index stood at 2.44.

In the case of FVAFALCMFCLYHFMPLVIKVTSA [S13H], the protein stability index worked out at 3.26.

Consider FVAFALCMFCLYFFMPLVIKVTSA [S13F], for which the protein stability index was 2.8.

On to FVAFALCMFCLYGFMPLVIKVTSA [S13G], for which the protein stability index stood at 3.42.

Turning to FVAFALCMFCLYMFMPLVIKVTSA [S13M], the protein stability index was 2.54.

For the variant FVAFALCMFCLYNFMPLVIKVTSA [S13N], the protein stability index stood at 3.33.

With FVAFALCMFCLYKFMPLVIKVTSA [S13K], the protein stability index worked out at 3.34.

With FVAFALCMFCLYLFMPLVIKVTSA [S13L], the protein stability index was found to be 3.22.

FVAFALCMFCLYEFMPLVIKVTSA [S13E]: the protein stability index worked out at 3.17.

With FVAFALCMFCLYCFMPLVIKVTSA [S13C], the protein stability index worked out at 2.62.

Turning to FVAFALCMFCLYPFMPLVIKVTSA [S13P], the protein stability index is 2.15.

Consider FVAFALCMFCLYDFMPLVIKVTSA [S13D], for which the protein stability index turned out to be 4.24.

FVAFALCMFCLYAFMPLVIKVTSA [S13A]: the protein stability index came out at 2.08.

For FVAFALCMFCLYIFMPLVIKVTSA [S13I], the protein stability index stood at 3.95.

With FVAFALCMFCLESFMPLVIKVTSA [Y12E], the protein stability index was found to be 3.32.

On to FVAFALCMFCLLSFMPLVIKVTSA [Y12L], for which the protein stability index stood at 2.5.

Regarding FVAFALCMFCLFSFMPLVIKVTSA [Y12F], the protein stability index worked out at 2.54.

With FVAFALCMFCLPSFMPLVIKVTSA [Y12P], the protein stability index was found to be 2.25.

On to FVAFALCMFCLWSFMPLVIKVTSA [Y12W], for which the protein stability index is 2.76.

FVAFALCMFCLDSFMPLVIKVTSA [Y12D]: the protein stability index came to 1.79.

FVAFALCMFCLQSFMPLVIKVTSA [Y12Q]: the protein stability index was determined as 3.48.

In the case of FVAFALCMFCLMSFMPLVIKVTSA [Y12M], the protein stability index came to 2.75.

On to FVAFALCMFCLTSFMPLVIKVTSA [Y12T], for which the protein stability index was determined as 2.68.

With FVAFALCMFCLISFMPLVIKVTSA [Y12I], the protein stability index came to 2.31.

In the case of FVAFALCMFCLASFMPLVIKVTSA [Y12A], the protein stability index came out at 3.98.

Turning to FVAFALCMFCLNSFMPLVIKVTSA [Y12N], the protein stability index was 3.2.

Regarding FVAFALCMFCLVSFMPLVIKVTSA [Y12V], the protein stability index amounted to 2.74.

For FVAFALCMFCLGSFMPLVIKVTSA [Y12G], the protein stability index came to 3.85.

On to FVAFALCMFCLCSFMPLVIKVTSA [Y12C], for which the protein stability index came out at 2.32.

In the case of FVAFALCMFCLHSFMPLVIKVTSA [Y12H], the protein stability index was 2.47.

As for FVAFALCMFCLSSFMPLVIKVTSA [Y12S], the protein stability index came out at 3.08.

In the case of FVAFALCMFCLKSFMPLVIKVTSA [Y12K], the protein stability index was 2.74.

On to FVAFALCMFCLRSFMPLVIKVTSA [Y12R], for which the protein stability index came to 2.29.

Values taken from the supplement of paper PMC10567573.
